Data reported in paper PMC3794440 (Biochemistry, 2013).
Like-named read-outs stand apart in the source and are kept apart here.

Columns and labels:
I28A Pin1 = I28A Pin1 (Homo sapiens, UniProt Q13526, I28A); assay: NMR titration; assay type: binding; settings: read-out: equilibrium dissociation constant Kd (I28A), 295 K, 16.4 T, 30 mM imidazole-d4 pH 6.6, 5 mM DTT-d10, 30 mM NaCl, 0.03% NaN3, 90% H2O/10% D2O, uncertainties by jack-knife simulations
wild-type Pin1 [1] = biological target: T1, wild-type Pin1 (Homo sapiens, UniProt Q13526); assay: NMR titration; assay type: binding; settings: read-out: equilibrium dissociation constant Kd (WT), 295 K, 16.4 T, 30 mM imidazole-d4 pH 6.6, 5 mM DTT-d10, 30 mM NaCl, 0.03% NaN3, 90% H2O/10% D2O, uncertainties by jack-knife simulations
wild-type Pin1 [2] = biological target: T1, wild-type Pin1; assay: chromogenic coupled isomerase assay of Kofron et al., WT; assay type: biochemical; settings: chromogenic substrate suc-AEPF-pNA

Kd (I28A Pin1; residue G20, WW domain) [µM] | Kd (I28A Pin1; residue R14, WW domain) [µM] | Kd (I28A Pin1; residue R54, PPIase domain) [µM] | Kd (wild-type Pin1 [1]; residue A140, PPIase domain) [µM] | Kd (wild-type Pin1 [1]; residue G20, WW domain) [µM] | Kd (wild-type Pin1 [1]; residue R14, WW domain) [µM] | Kd (wild-type Pin1 [1]; residue R54, PPIase domain) [µM] | specificity constant kcat/KM (WT) (wild-type Pin1 [2]) [mM^–1 s^–1] | Substance
43.5 ± 3 | 48.5 ± 4.9 | 110 ± 10 | 9.7 ± 2 | 9.1 ± 0.4 | 2.7 ± 0.7 | 7.8 ± 0.4 |  | EQPLpTPVTDL [Cdc25C phosphopeptide]
 |  |  |  |  |  |  | 4250 ± 213 | WT: full-length wild-type human Pin1 (WW domain and PPIase domain)
